Measurements as given in PMC6697681, “The predominance of nucleotidyl activation in bacterial phosphonate biosynthesis” (Nature Communications, 2019).

Target: the molecule itself
Assay: dynamic light scattering; 20 µl of freshly purified protein (8 mg/ml) at 20 °C, DynaPro NanoStar; self-association (oligomeric state)

B1: Tde1415 (Tde-PntC; two-domain protein with an N-terminal PntC and a C-terminal AEPT domain) from Treponema denticola (enzyme, Treponema denticola ATCC 35405)
chain: MIKQAVILAGGLGSRLKDKTKTMPKGFLEIGGTAIVEQSVQKLLAHGIEKIVIGTGHCNEYYDNLAKKYPAIITVKNENYANTGSMGTLEVCASFVNESFLLLESDLIYDSAGLFSLINDERKNLILASGATKSGDEVYLEADEKNCLTGLSKNRDALKNIFGELVGITKLTKSTLDKMCAYAKIHHSDLPKMEYEHALLEAAKTIPVAIKRIEYFVWREIDNEDHLEMAVKNIYPHIVENEKLRAVRREVLLNPGPATTTDSVKYAQVSADICPREKAFGDLMQWLCDELKLFALASETNPDEYETVMFGCSGTGADEVMVSSCVPDTGRLLVIDNGSYGARMAKIADIYKIPMDIFKSSTYEPLDLQKLEAEFATKKYTHLACVYHETTTGLLNPLHIICPMAKKYGMVTIVDAVSAYCGMPMDLKSLGIDFMASTSNKNIQGMAGVGFVICNKAELEKTKDYPMRNYYLNLYDQYAYFAKTHQTRFTPPVQTMYALRQAVLETKQETVQKRYERYTACWNILVAAIKKLGLKMLVKEEHQSHFITAILEPETPKYSFEALHDFAAEHSFTIYPGKLGNIDTFRIANIGDIQPEEMRRFTVKLKEYMNGIGVGV
notes: Tde1415 (Tde-PntC) from T. denticola ATCC 35405, NCBI NP_992021; N-terminal PntC cytidylyltransferase domain joined to a C-terminal AEP transaminase (AEPT) domain; predicted monomeric molecular weight ~70 kDa; gene subcloned without its stop codon as NdeI/NotI fragment into pET21b (pGH3000); Dimer by DLS; source: E. coli BL21(DE3), purified (Ni-NTA, HiTrap Q FF anion exchange)
  stoichiometry N: 2
